Data from US20130109581A1, “POSITIVELY CHARGED SPECIES AS BINDING REAGENTS IN THE SEPARATION OF PROTEIN AGGREGATES FROM MONOMERS” (priority 2009, published 2013).
Values joined by “and” are separate entries in the source; they are usually repeats but may differ in a detail not shown here. Equal values may be shown once. Read-outs that look alike come from different tables or passages of the source. One block for each substance: values may come before it.

Experiments:
[1] = molecular target: Abeta 1-40 monomer (UniProt P05067); assay: MPA bead capture, Abeta 1-40 read-out of the CSF sample (noise)
[2] = molecular target: Abeta 1-42 globulomer (UniProt P05067)
[3] = molecular target: PrPSc, prion aggregates of prion infected hamster (Syrian hamster) (UniProt P04273); assay: cell-based or functional assay
[4] = molecular target: Abeta 1-42 globulomer (UniProt P05067); assay: MPA, pulldown in CSF, 1% TW20 wash
[5] = molecular target: Abeta 1-42 monomer (UniProt P05067); assay: MPA, unspiked CSF background, ASB-14 wash
[6] = molecular target: Abeta 1-42 monomer (UniProt P05067); assay: MPA, unspiked CSF background, ASB-16 wash
[7] = molecular target: Abeta 1-42 monomer (UniProt P05067); assay: MPA, unspiked CSF background, ZW3-08 wash
[8] = molecular target: Abeta 1-42 monomer (UniProt P05067); assay: MPA, unspiked CSF background, ZW3-12 wash
[9] = molecular target: Abeta 1-42 monomer (UniProt P05067); assay: MPA, unspiked CSF background, ZW3-14 wash
[10] = molecular target: Abeta 1-42 monomer (UniProt P05067); assay: MPA, unspiked CSF background, ZW3-16 wash
[11] = molecular target: Abeta 1-42 monomer (UniProt P05067); assay: MPA, unspiked CSF background, Brij 35 wash
[12] = molecular target: Abeta 1-42 monomer (UniProt P05067); assay: MPA, unspiked CSF background, Empigen wash
[13] = molecular target: Abeta 1-42 globulomer (UniProt P05067); assay: MPA, CSF + 0.5 ng/mL globulomer, ASB-14 wash
[14] = molecular target: Abeta 1-42 globulomer (UniProt P05067); assay: MPA, CSF + 0.5 ng/mL globulomer, ASB-16 wash
[15] = molecular target: Abeta 1-42 globulomer (UniProt P05067); assay: MPA, CSF + 0.5 ng/mL globulomer, ZW3-08 wash
[16] = molecular target: Abeta 1-42 globulomer (UniProt P05067); assay: MPA, CSF + 0.5 ng/mL globulomer, ZW3-12 wash
[17] = molecular target: Abeta 1-42 globulomer (UniProt P05067); assay: MPA, CSF + 0.5 ng/mL globulomer, ZW3-14 wash
[18] = molecular target: Abeta 1-42 globulomer (UniProt P05067); assay: MPA, CSF + 0.5 ng/mL globulomer, ZW3-16 wash
[19] = molecular target: Abeta 1-42 monomer (UniProt P05067); assay: MPA, unspiked CSF background, ASB-C8phn wash
[20] = molecular target: Abeta 1-42 globulomer (UniProt P05067); assay: MPA, pulldown in CSF, no added detergent wash
[21] = molecular target: Abeta 1-42 globulomer (UniProt P05067); assay: MPA, CSF + 0.5 ng/mL globulomer, Brij 35 wash
[22] = molecular target: Abeta 1-42 globulomer (UniProt P05067); assay: MPA, CSF + 0.5 ng/mL globulomer, Empigen wash
[23] = molecular target: Abeta 1-42 globulomer (UniProt P05067); assay: MPA, pulldown in TBSTT, no added detergent wash
[24] = molecular target: Abeta 1-42 globulomer (UniProt P05067); assay: MPA, CSF + 0.5 ng/mL globulomer, ASB-C8phn wash
[25] = molecular target: Abeta 1-42 monomer (UniProt P05067); assay: MPA, unspiked CSF background, Pluronic F-127 wash
[26] = molecular target: Abeta 1-42 globulomer (UniProt P05067); assay: MPA, PSR1 beads, globulomer spiked into normal CSF
[27] = molecular target: Abeta 1-42 globulomer (UniProt P05067); assay: 42 (globulomer) RLU over 40 (Abeta 1-40 monomer) RLU
[28] = molecular target: Abeta 1-42 globulomer (UniProt P05067); assay: MPA, 0.5 over 0 ng/mL globulomer in CSF, ASB-14 wash
[29] = molecular target: Abeta 1-42 globulomer (UniProt P05067); assay: MPA, 0.5 over 0 ng/mL globulomer in CSF, ASB-16 wash
[30] = molecular target: Abeta 1-42 globulomer (UniProt P05067); assay: MPA, 0.5 over 0 ng/mL globulomer in CSF, ZW3-08 wash
[31] = molecular target: Abeta 1-42 globulomer (UniProt P05067); assay: MPA, 0.5 over 0 ng/mL globulomer in CSF, ZW3-12 wash
[32] = molecular target: Abeta 1-42 globulomer (UniProt P05067); assay: MPA, 0.5 over 0 ng/mL globulomer in CSF, ZW3-14 wash
[33] = molecular target: Abeta 1-42 globulomer (UniProt P05067); assay: MPA, 0.5 over 0 ng/mL globulomer in CSF, ZW3-16 wash
[34] = molecular target: Abeta 1-42 globulomer (UniProt P05067); assay: MPA, CSF + 0.5 ng/mL globulomer, Pluronic F-127 wash
[35] = molecular target: Abeta 1-42 globulomer (UniProt P05067); assay: MPA, 0.5 over 0 ng/mL globulomer in CSF, Brij 35 wash
[36] = molecular target: Abeta 1-42 globulomer (UniProt P05067); assay: MPA, 0.5 over 0 ng/mL globulomer in CSF, Empigen wash
[37] = molecular target: ADDL (Abeta42 aggregate) (UniProt P05067); assay: MPA, serial dilutions in CSF, LoD = 2x over background
[38] = molecular target: ASPD (Abeta42 aggregate) (UniProt P05067); assay: as above
[39] = molecular target: Abeta 1-42 globulomer (UniProt P05067); assay: as above
[40] = molecular target: Abeta 1-42 monomer (UniProt P05067); assay: as above
[41] = molecular target: Abeta42 fibrils (UniProt P05067); assay: as above
[42] = molecular target: ADDL (Abeta42 aggregate) (UniProt P05067); assay: as above; remark: listed apart in the source
[43] = molecular target: ASPD (Abeta42 aggregate) (UniProt P05067); assay: as above; remark: listed apart in the source
[44] = molecular target: Abeta (1-42) aggregates from Alzheimer's Disease Brain Homogenate (human) (UniProt P05067); assay: as above
[45] = molecular target: Abeta 1-42 globulomer (UniProt P05067); assay: as above; remark: listed apart in the source
[46] = molecular target: Abeta42 fibrils (UniProt P05067); assay: as above; remark: listed apart in the source
[47] = molecular target: Abeta 1-42 globulomer (UniProt P05067); assay: MPA, 0.5 over 0 ng/mL globulomer in CSF, ASB-C8phn wash
[48] = molecular target: Abeta 1-42 globulomer (UniProt P05067); assay: MPA, PSR1 beads, globulomer spiked into buffer (TBSTT)
[49] = molecular target: Abeta 1-42 globulomer (UniProt P05067); assay: MPA, 0.5 over 0 ng/mL globulomer in CSF, Pluronic F-127 wash
[50] = molecular target: Abeta 1-42 globulomer (UniProt P05067); assay: MPA bead capture, CSF + 1 ng/mL globulomer, Abeta immunoassay
[51] = molecular target: Abeta (1-42) aggregates from Alzheimer's Disease Brain Homogenate (human) (UniProt P05067); assay: MPA, serial dilutions of ADBH in CSF, LoD = 2x over background
[52] = molecular target: Abeta 1-42 globulomer (UniProt P05067); assay: MPA, globulomer Abeta 42 RLU over average Abeta 40 RLU, ASB-14 wash
[53] = molecular target: Abeta 1-42 globulomer (UniProt P05067); assay: MPA, globulomer Abeta 42 RLU over average Abeta 40 RLU, ASB-16 wash
[54] = molecular target: Abeta 1-42 globulomer (UniProt P05067); assay: MPA, globulomer Abeta 42 RLU over average Abeta 40 RLU, ZW3-08 wash
[55] = molecular target: Abeta 1-42 globulomer (UniProt P05067); assay: MPA, globulomer Abeta 42 RLU over average Abeta 40 RLU, ZW3-12 wash
[56] = molecular target: Abeta 1-42 globulomer (UniProt P05067); assay: MPA, globulomer Abeta 42 RLU over average Abeta 40 RLU, ZW3-14 wash
[57] = molecular target: Abeta 1-42 globulomer (UniProt P05067); assay: MPA, globulomer Abeta 42 RLU over average Abeta 40 RLU, ZW3-16 wash
[58] = molecular target: Abeta 1-42 globulomer (UniProt P05067); assay: MPA, globulomer Abeta 42 RLU over average Abeta 40 RLU, Brij 35 wash
[59] = molecular target: Abeta 1-42 globulomer (UniProt P05067); assay: MPA, globulomer Abeta 42 RLU over average Abeta 40 RLU, Empigen wash
[60] = molecular target: Abeta 1-42 globulomer (UniProt P05067); assay: MPA, globulomer Abeta 42 RLU over average Abeta 40 RLU, ASB-C8phn wash
[61] = molecular target: Abeta 1-42 globulomer (UniProt P05067); assay: MPA, globulomer Abeta 42 RLU over average Abeta 40 RLU, Pluronic F-127 wash
[62] = molecular target: Abeta (1-42) aggregates from Alzheimer's Disease Brain Homogenate (human) (UniProt P05067); assay: MPA, AD brain homogenate in plasma, Abeta(1-42) ELISA

average RLU (40) [1]: 192 RLU
Substance: KKKFKF-link (peptide)

Substance: KKKKKK (peptide)
average RLU (40) [1]: 197 RLU

Substance: PSR1 (peptoid, directly conjugated to Dynal M270 beads)
LoD of globulomer, RLU (S/N = 2) [2]: 199 RLU
LoD of globulomer, pg/mL (Cal) [2]: 2.33 pg/mL
S/N at 25.3 pg/mL [2]: 10.3
Attack rate (Clinical TSE/total inoculated), Pool 2 [3]: 100%
Attack rate (Clinical TSE/total inoculated), Pool 3 (pre-symptomatic) [3]: 50%
Attack rate (Clinical TSE/total inoculated), Pool 4 [3]: 100%
Mean incubation period (days), Pool 1 [3]: 94 dpi
Mean incubation period (days), Pool 2 [3]: 74 dpi
Mean incubation period (days), Pool 4 [3]: 76 dpi
incubation period (days), Pool 3 (pre-symptomatic) [3]: 56 days and 85 days
LoD of globulomer, RLU (S/N = 2) [4]: 211 RLU
LoD of globulomer, pg/mL (Cal) [4]: 2.52 pg/mL
S/N at 25.3 pg/mL [4]: 11
Abeta 42 RLU, 0 ng/mL Average [5]: 89.7 RLU
Abeta 42 RLU, 0 ng/mL Average [6]: 95.7 RLU
Abeta 42 RLU, 0 ng/mL Average [7]: 97.7 RLU
Abeta 42 RLU, 0 ng/mL Average [8]: 90.7 RLU
Abeta 42 RLU, 0 ng/mL Average [9]: 110 RLU
Abeta 42 RLU, 0 ng/mL Average [10]: 67 RLU
Abeta 42 RLU, 0 ng/mL Average [11]: 117 RLU
Abeta 42 RLU, 0 ng/mL Average [12]: 76.7 RLU
Abeta 42 RLU, 0.5 ng/mL Average [13]: 779 RLU
Abeta 42 RLU, 0.5 ng/mL Average [14]: 789 RLU
Abeta 42 RLU, 0.5 ng/mL Average [15]: 669 RLU
Abeta 42 RLU, 0.5 ng/mL Average [16]: 642 RLU
Abeta 42 RLU, 0.5 ng/mL Average [17]: 842 RLU
Abeta 42 RLU, 0.5 ng/mL Average [18]: 731 RLU
Abeta 42 RLU, 0 ng/mL Average [19]: 101 RLU
LoD of globulomer, RLU (S/N = 2) [20]: 456 RLU
LoD of globulomer, pg/mL (Cal) [20]: 6.16 pg/mL
S/N at 25.3 pg/mL [20]: 5.7
Abeta 42 RLU, 0.5 ng/mL Average [21]: 741 RLU
Abeta 42 RLU, 0.5 ng/mL Average [22]: 670 RLU
LoD of globulomer, RLU (S/N = 2) [23]: 204 RLU
LoD of globulomer, pg/mL (Cal) [23]: 2.34 pg/mL
S/N at 25.3 pg/mL [23]: 13.7
Abeta 42 RLU, 0.5 ng/mL Average [24]: 936 RLU
Abeta 42 RLU, 0 ng/mL Average [25]: 117 RLU
limit of detection (LoD) [26]: 10 pM
42:40 ratio [27]: 4.1
S/N Abeta 42 globulomer-spiked/unspiked [28]: 8.7
S/N Abeta 42 globulomer-spiked/unspiked [29]: 8.2
S/N Abeta 42 globulomer-spiked/unspiked [30]: 6.8
S/N Abeta 42 globulomer-spiked/unspiked [31]: 7.1
S/N Abeta 42 globulomer-spiked/unspiked [32]: 7.7
S/N Abeta 42 globulomer-spiked/unspiked [33]: 10.9
Abeta 42 RLU, 0.5 ng/mL Average [34]: 739 RLU
S/N Abeta 42 globulomer-spiked/unspiked [35]: 6.3
S/N Abeta 42 globulomer-spiked/unspiked [36]: 8.7
LoD [37]: 200 pg/mL
LoD (amol) [37]: 20 amol
LoD [38]: 200 pg/mL
LoD (amol) [38]: 20 amol
LoD [39]: 75 pg/mL
LoD (amol) [39]: 140 amol
LoD [40]: 1000 pg/mL
LoD (amol) [40]: 22000 amol
LoD [41]: 50 pg/mL
LoD (amol) [41]: < 2 amol
LoD [42]: 200 pg/mL
LoD [43]: 200 pg/mL
LoD [44]: < 5 pg/mL
LoD [45]: 75 pg/mL
LoD [46]: 50 pg/mL
S/N Abeta 42 globulomer-spiked/unspiked [47]: 9.3
limit of detection (LoD) [48]: 5 pM
S/N Abeta 42 globulomer-spiked/unspiked [49]: 6.3
average RLU (42) [50]: 970 RLU
LoD (amol) [51]: < 0.2 amol
average RLU (40) [1]: 234 RLU
S/N Abeta 42 globulomer-spiked/Abeta 40 [52]: 2
S/N Abeta 42 globulomer-spiked/Abeta 40 [53]: 2.8
S/N Abeta 42 globulomer-spiked/Abeta 40 [54]: 0.9
S/N Abeta 42 globulomer-spiked/Abeta 40 [55]: 1.4
S/N Abeta 42 globulomer-spiked/Abeta 40 [56]: 2.2
S/N Abeta 42 globulomer-spiked/Abeta 40 [57]: 3.7
S/N Abeta 42 globulomer-spiked/Abeta 40 [58]: 1
S/N Abeta 42 globulomer-spiked/Abeta 40 [59]: 2.6
S/N Abeta 42 globulomer-spiked/Abeta 40 [60]: 1.4
S/N Abeta 42 globulomer-spiked/Abeta 40 [61]: 0.9

Substance: biotinylated PSR1 (+++A+A) on streptavidin magnetic beads
limit of detection [62]: 3.8 mL/assay
